The record followed here is US20240002860, “SARS-CoV-2 SPIKE GLYCOPROTEIN-BINDING NUCLEIC ACID MOLECULE, SARS-CoV-2 DETECTION SENSOR, SARS-CoV-2 DETECTION REAGENT, SARS-CoV-2 DETECTION METHOD, AND SARS-CoV-2 VIRUS DEACTIVATOR” (NEC Solution Innovators, Ltd., published 2024).

Data set [1] has as its target T1, SARS-CoV-2 spike glycoprotein RBD domain (SARS-CoV-2, UniProt P0DTC2 SEQ:1-223). The data set is described as follows: SPR.
The target of data set [2] is BSA (bovine serum albumin) (UniProt P02769 P02769:25-607). The data set is described as follows: SPR; signal approximately 0. Particulars: tags: Sigma A7906. For orientation: In SPR one partner is held on a chip, and binding of the other changes the refractive index at the surface.
The target of data set [3] is T1, SARS-CoV-2 spike glycoprotein RBD domain. The data set is described as follows: SPR; SB1T + 0.1 mM dextran, 25 C.
Data set [4] has the same target. Description: SPR; SB1T, no dextran, 25 C.
For data set [5] the target is unchanged. Description: ELONA.
The target of data set [6] is SARS-CoV-2 spike glycoprotein S1+S2 domain (ECD) (SARS-CoV-2, UniProt P0DTC2 SEQ:2-1201). Description: SPR; 400 nM protein, SB1T, 25 C. Particulars: tags: His; Sino Biological 40589-V08B1.
In data set [7] the target is SARS-CoV-2 spike glycoprotein S1 domain (SARS-CoV-2, UniProt P0DTC2 SEQ:2-673). Description: SPR; 400 nM protein, SB1T, 25 C. The note with it: tags: Elabscience PKSR030481.

Where a chain is given by its changes, count along the chain named. A value given as a limit tells only on which side of the number the result lay.

As usually defined, the Kd is the constant that tells how readily two partners part at equilibrium.

BSA (bovine serum albumin), sequence (P02769 25-607, one chain of several): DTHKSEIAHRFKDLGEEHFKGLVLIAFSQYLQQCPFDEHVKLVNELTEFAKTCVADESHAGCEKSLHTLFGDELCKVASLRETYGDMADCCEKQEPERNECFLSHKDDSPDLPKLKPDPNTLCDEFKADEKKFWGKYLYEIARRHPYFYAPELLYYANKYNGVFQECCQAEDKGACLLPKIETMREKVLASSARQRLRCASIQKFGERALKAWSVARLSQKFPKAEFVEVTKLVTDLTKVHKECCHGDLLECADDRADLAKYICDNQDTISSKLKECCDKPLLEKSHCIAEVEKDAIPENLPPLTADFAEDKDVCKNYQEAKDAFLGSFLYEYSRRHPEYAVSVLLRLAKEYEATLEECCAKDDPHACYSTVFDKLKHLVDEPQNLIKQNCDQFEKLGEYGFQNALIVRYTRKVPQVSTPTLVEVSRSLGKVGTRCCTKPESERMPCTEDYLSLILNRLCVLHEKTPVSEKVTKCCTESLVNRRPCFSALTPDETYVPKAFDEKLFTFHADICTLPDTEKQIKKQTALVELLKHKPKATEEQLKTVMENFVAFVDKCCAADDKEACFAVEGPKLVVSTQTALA

B1: Binding nucleic acid molecule 1 (ssDNA)
DNA: GGTATGTCTCCGCCACTGAAATCCGTGCCTAATCTCACCCCACGGAATTCATGGCAAAGCCGAGGTGTCTTGTATTCAAAAAAAAAAAAAAAAAAAA
modifications: NG7 (modified thymine, formula 1) at underlined T, i.e. T residues 3' of the first 23 nt (underlining of some T differs between printings); 3' poly(dA)20 tail unmodified
Regarding B1, the Kd in data set [1] was 1.2 nM; in data set [3], 3.2 nM. In addition, the binding result in data set [2] is “no binding”.

B2: Binding nucleic acid molecule 5 (ssDNA)
DNA: GGTTTAGCCCTCGACTCCAAATGTGCACTCTCCCGGTATCCCTAATCTCACCCGATACCGTTGATGTGCTGCCAATACAAAAAAAAAAAAAAAAAAAA
modifications: NG7 (modified thymine, formula 1) at underlined T, i.e. T residues 3' of the first 23 nt (underlining of some T differs between printings)
Turning to B2, the Kd in data set [1] is below 0.1 nM; in data set [3], 2.8 nM. For the same molecule, the binding result in data set [2] is “no binding”.

B3: Binding nucleic acid molecule 7 (ssDNA)
DNA: B2 DNA with A27T, C28G, T29A, C30T, T31A, C33T
modifications: NG7 (modified thymine, formula 1) at all T 3' of the first 23 nt
As to B3, the Kd in data set [1] is below 0.1 nM; in data set [3] it was 5.5 nM. Further, the binding result in data set [2] is listed as “no binding”.

B4: Binding nucleic acid molecule 2 (ssDNA)
DNA: GGTATGTCTCCGCCACTGAAATCTAATCTCACATTGTAAGCAAAGGAGAATAAGCAAAGCCGAGGTGTCTTGTATTCAAAAAAAAAAAAAAAAAAAA
modifications: NG7 (modified thymine, formula 1) at all T 3' of the first 23 nt
As for B4, the Kd came to 1.7 nM in data set [4] and 3.5 nM in data set [3]. In data set [2], the binding result was “no binding”.

B5: Binding nucleic acid molecule 12 (ssDNA)
DNA: TGACATGAGCCAGGTGCATCTTGAACGTCATAGATACCGTTGATGTGCTGAAAAAAAAAAAAAAAAAAAA
modifications: NG7 (modified thymine, formula 1) at all T 3' of the first 14 nt
Regarding B5, the Kd in data set [4] is 2.4 nM; in data set [3] it was 7.4 nM.

B6: Control nucleic acid molecule (Song et al. 2020 aptamer) (ssDNA)
DNA: CAGCACCGACCTTGTGCTTTGGGAGTGCTGGTCCAAGGGCGTTAATGGACAAAAAAAAAAAAAAAAAAAAA
Take B6: the equilibrium dissociation constant (Kd) in data set [4] worked out at 65000 nM.

B7: Binding nucleic acid molecule 6 (ssDNA)
DNA: GGTTTAGCCCTCGACTCCAAATGACATGAGCCAGGTGCATCTTGAACGTCATAGATACCGTTGATGTGCTGCCAATACAAAAAAAAAAAAAAAAAAAA
modifications: NG7 (modified thymine, formula 1) at all T 3' of the first 23 nt
As to B7, the results for the Kd in data set [4] and in data set [3] were 3.1 nM and 6.7 nM, respectively. For the same molecule, in data set [2], the binding result is given as “no binding”.

Consider CCACTGAAATCCGTGCCTAATCTCACCCCACGGAATTCATGG (ssDNA, NG7 (modified thymine, formula 1) at all T 3' of the first 11 nt) [Binding nucleic acid molecule 8, 5'-biotin (ELAA)], for which the binding result in data set [5] is reported as “binds”.

B8: Binding nucleic acid molecule 3 (ssDNA)
DNA: GGTATGTCTCCGCCACTGAAATCCCTGACCGCTGACCAAATCTCAGTGCAGATGCAAAGCCGAGGTGTCTTGTATTCAAAAAAAAAAAAAAAAAAAA
modifications: NG7 (modified thymine, formula 1) at all T 3' of the first 23 nt
As for B8, the binding result in data set [2] is recorded as “no binding”; in data set [6], “binds”; in data set [7], “binds”.

B9: Binding nucleic acid molecule 9 (ssDNA)
DNA: TCCGCCACTGAAATCTAATCTCACATTGTAAGCAAAGGAGAATAAAAAAAAAAAAAAAAAAAAAA
modifications: NG7 (modified thymine, formula 1) at all T 3' of the first 15 nt
As to B9, the Kd in data set [4] worked out at 2.1 nM; in data set [3], 20.8 nM.

B10: Binding nucleic acid molecule 1, 5'-biotin (ELAA) (ssDNA)
DNA: GGTATGTCTCCGCCACTGAAATCCGTGCCTAATCTCACCCCACGGAATTCATGGCAAAGCCGAGGTGTCTTGTATTC
modifications: NG7 (modified thymine, formula 1) at underlined T, i.e. T residues 3' of the first 23 nt
As to B10, the binding result in data set [5] is listed as “binds”.

B11: Binding nucleic acid molecule 4 (ssDNA)
DNA: GGTATGTCTCCGCCACTGAAATCTTGTCCCCTAATAGGTTCCGACTGACAAGTGCAAAGCCGAGGTGTCTTGTATTCAAAAAAAAAAAAAAAAAAAA
modifications: NG7 (modified thymine, formula 1) at all T 3' of the first 23 nt
Turning to B11, the binding result is listed as “no binding” in data set [2], “binds” in data set [6] and “binds” in data set [7].

B12: Binding nucleic acid molecule 8 (ssDNA)
DNA: CCACTGAAATCCGTGCCTAATCTCACCCCACGGAATTCATGGAAAAAAAAAAAAAAAAAAAA
modifications: NG7 (modified thymine, formula 1) at all T 3' of the first 11 nt
For the molecule B12, the dissociation constant (Kd) is 2 nM in data set [4] and 5.3 nM in data set [3].

B13: Binding nucleic acid molecule 11 (ssDNA)
DNA: TGTGCACTCTCCCGGTATCCCTAATCTCACCCGATACCAAAAAAAAAAAAAAAAAAAA
modifications: NG7 (modified thymine, formula 1) at all T 3' of the first 15 nt
Turning to B13, the equilibrium dissociation constant (Kd) was below 0.1 nM in data set [1] and 16.6 nM in data set [3].

B14: Binding nucleic acid molecule 13 (ssDNA)
DNA: GCTGATACTCGGTATCCCTAATCTCACCCGATACCGAAAAAAAAAAAAAAAAAAAA
modifications: NG7 (modified thymine, formula 1) at all T 3' of the first 12 nt
As for B14, the Kd is below 0.1 nM in data set [1] and 12 nM in data set [3].
